# Results published in patent US11840574B2, “Anti-DR5 antibody and use thereof” (DONG-A ST CO., LTD., priority 2017, dated 2023).
# Changes are numbered by the printed parent chain.
# B1: DA24: humanized or deimmunized variant of parental clone D0; CDRs SEQ ID NO 1, 2, 7 / 4, 10, 13 (antibody, V domains shown)
# VH: AVTLDESGGGLQTPGGGLSLVCKGSGFTFSSFNMLWVRQAPGKGLEWVAGIGKSDRYTGYGSAVKGRATISRDDGQSTVRLQLNNLRAEDTGTYYCVKDAGSGCGSGGWTGACIDTWGHGTEVIVSS
# VL: LTQPSSVSANLGGTVEITCSGGDSYAGSYYYGWYQQKAPGSAPVTVIYNNNNRPSNIPSRFSGSTSGSTATLTITGVQAEDEATYYCGSRDSSYVGIFGAGTTLTVL
# B2: DA26: humanized or deimmunized variant of parental clone D0; CDRs SEQ ID NO 1, 2, 7 / 4, 10, 13 (antibody, V domains shown)
# VH: B1 VH with R80Y, L83M, N85S
# VL: B1 VL
# B3: DA33: humanized or deimmunized variant of parental clone D0; CDRs SEQ ID NO 1, 2, 7 / 4, 10, 13 (antibody, V domains shown)
# VH: B1 VH with V79A, G92A, T93V
# VL: B1 VL with Y86F
# B4: DA28: humanized or deimmunized variant of parental clone D0; CDRs SEQ ID NO 1, 2, 7 / 4, 10, 13 (antibody, V domains shown)
# VH: B1 VH with V79A
# VL: B1 VL with T84V, Y86F
# B5: DA31: humanized or deimmunized variant of parental clone D0; CDRs SEQ ID NO 1, 2, 7 / 4, 10, 13 (antibody, V domains shown)
# VH: B1 VH with V79A, L83M, N85S
# VL: B1 VL with Y86F
# B6: DA30: humanized or deimmunized variant of parental clone D0; CDRs SEQ ID NO 1, 2, 7 / 4, 10, 13 (antibody, V domains shown)
# VH: B1 VH with V79A, R80Y, L83M, N85S
# VL: B1 VL
# B7: DA25: humanized or deimmunized variant of parental clone D0; CDRs SEQ ID NO 1, 2, 7 / 4, 10, 13 (antibody, V domains shown)
# VH: B1 VH with R80Y, L83M, N85S
# VL: B1 VL with T84V, Y86F
# B8: DA32: humanized or deimmunized variant of parental clone D0; CDRs SEQ ID NO 1, 2, 7 / 4, 10, 13 (antibody, V domains shown)
# VH: B1 VH with G92A, T93V
# VL: B1 VL with T84V, Y86F
# B9: DA27: humanized or deimmunized variant of parental clone D0; CDRs SEQ ID NO 1, 2, 7 / 4, 10, 13 (antibody, V domains shown)
# VH: B1 VH
# VL: B1 VL with Y86F
# B10: DA34: humanized or deimmunized variant of parental clone D0; CDRs SEQ ID NO 1, 2, 7 / 4, 10, 13 (antibody, V domains shown)
# VH: B1 VH with V79A, R80Y, L83M, N85S, G92A, T93V
# VL: B1 VL
# B11: DA5: humanized or deimmunized variant of parental clone D0; CDRs SEQ ID NO 1, 2, 7 / 4, 10, 13 (antibody, V domains shown)
# VH: EVQLVESGGGLVQPGGSLRLSCAASGFTFSSFNMLWVRQAPGKGLEWVAGIGKSDRYTGYGSAVKGRFTISRDDSKSTAYLQMNSLRAEDTAVYYCVRDAGSGCGSGGWTGACIDTWGQGTLVTVSS
# VL: DIQMTQSPSSLSASVGDRVTITCSGGDSYAGSYYYGWYQQKPGKAPKTLIYNNNNRPSGVPSRFSGSTSGTDFTLTISSLQPEDFATYYCGSRDSSYVGIFGQGTKVEIK
# B12: DA15: humanized or deimmunized variant of parental clone D0; CDRs SEQ ID NO 1, 2, 7 / 4, 10, 15 (antibody, V domains shown)
# VH: B11 VH with D74T, S77N, V97S
# VL: B11 VL with T68R, S96D, Y97G, V98G, I100R
# B13: DA8: humanized or deimmunized variant of parental clone D0; CDRs SEQ ID NO 1, 2, 7 / 4, 10, 13 (antibody, V domains shown)
# VH: B11 VH with A79V
# VL: B11 VL with T68G
# B14: DA16: humanized or deimmunized variant of parental clone D0; CDRs SEQ ID NO 1, 2, 7 / 4, 10, 16 (antibody, V domains shown)
# VH: B11 VH with D74T, S77N, V97S
# VL: B11 VL with T68R, Y97G, V98A, I100G
# B15: DA12: humanized or deimmunized variant of parental clone D0; CDRs SEQ ID NO 1, 2, 7 / 4, 11, 13 (antibody, V domains shown)
# VH: B11 VH with D74T, S77N, V97S
# VL: B11 VL with R56L, P57M, S58P, T68R
# B16: DA9: humanized or deimmunized variant of parental clone D0; CDRs SEQ ID NO 1, 2, 7 / 4, 10, 13 (antibody, V domains shown)
# VH: B11 VH with A79L
# VL: B11 VL with T68R
# B17: DA10: humanized or deimmunized variant of parental clone D0; CDRs SEQ ID NO 1, 2, 7 / 4, 10, 13 (antibody, V domains shown)
# VH: B11 VH with D74T, S77N, V97S
# VL: B11 VL with T68R
# B18: DA13: humanized or deimmunized variant of parental clone D0; CDRs SEQ ID NO 1, 2, 7 / 4, 10, 14 (antibody, V domains shown)
# VH: B11 VH with D74T, S77N, V97S
# VL: B11 VL with T68R, S96A, Y97G, V98M, I100A
# B19: DA14: humanized or deimmunized variant of parental clone D0; CDRs SEQ ID NO 1, 2, 7 / 4, 12, 13 (antibody, V domains shown)
# VH: B11 VH with D74T, S77N, V97S
# VL: B11 VL with R56K, P57A, S58K, T68R
# B20: DA6: humanized or deimmunized variant of parental clone D0; CDRs SEQ ID NO 1, 2, 7 / 4, 10, 13 (antibody, V domains shown)
# VH: B11 VH with A79V, V97A
# VL: B11 VL
# B21: DA7: humanized or deimmunized variant of parental clone D0; CDRs SEQ ID NO 1, 2, 7 / 4, 10, 13 (antibody, V domains shown)
# VH: B11 VH with A79V, V97S
# VL: B11 VL
# B22: DA18: humanized or deimmunized variant of parental clone D0; CDRs SEQ ID NO 1, 2, 7 / 4, 10, 15 (antibody, V domains shown)
# VH: B11 VH with A79V
# VL: B11 VL with T68R, S96D, Y97G, V98G, I100R
# B23: DA17: humanized or deimmunized variant of parental clone D0; CDRs SEQ ID NO 1, 2, 7 / 4, 12, 13 (antibody, V domains shown)
# VH: B11 VH with A79V
# VL: B11 VL with R56K, P57A, S58K, T68R
# Target: Human DR5 (Homo sapiens, UniProt O14763)
# Test: Binding affinity of antibody to human DR5 (BIAcore, CM5 chip)
# Details: association rate, Human DR5, 1:1 Langmuir binding model
# Method: In order to measure affinity, human DR5 was coupled to carboxylated dextran biosensor chips (CM5, GE) according to the manufacturer's instruction. Association and dissociation rates were assessed by injecting IgG proteins that were 2-fold serially diluted to 5 nM, 2.5 nM, 1.25 nM, 0.625 nM, 0.313 nM, and 0.156 nM.
# Association and dissociation rates were depicted in association and dissociation sensorgrams and calculated using a simple 1:1 Langmuir binding model (BIAcore X100 Evaluation Software, ver. 2.0). The equilibrium dissociation constants (KD), which is the ratio of dissociation constant (Kd) to association constant (Ka), were confirmed to be in the sub-nanomolar range. Measurements of the binding of antibody D0 and DA1 to DA35 of the present disclosure to DR5 are given in Table 11 below (antibody names are given as the names of the clones from which the antibodies were derived). A representative sensorgram for D0 is depicted in FIG. 1.
Ka(1/Ms),Ka,Molecule
1.20 × 10^06 1/Ms,–,B1
1.09 × 10^06 1/Ms,–,B2
1.24 × 10^06 1/Ms,–,B3
1.16 × 10^06 1/Ms,–,B4
1.24 × 10^06 1/Ms,–,B5
1.03 × 10^06 1/Ms,–,B6
1.05 × 10^06 1/Ms,–,B7
1.14 × 10^06 1/Ms,–,B8
1.17 × 10^06 1/Ms,–,B9
1.00 × 10^06 1/Ms,–,B10
–,1.2e+06 M⁻¹ s⁻¹,B11
2.56 × 10^06 1/Ms,–,B12
–,1.6e+06 M⁻¹ s⁻¹,B13
2.11 × 10^06 1/Ms,–,B14
2.37 × 10^06 1/Ms,–,B15
–,5.6e+06 M⁻¹ s⁻¹,B16
–,2.3e+06 M⁻¹ s⁻¹,B17
2.62 × 10^06 1/Ms,–,B18
4.27 × 10^06 1/Ms,–,B19
–,7.8e+06 M⁻¹ s⁻¹,B20
–,1.4e+06 M⁻¹ s⁻¹,B21
1.33 × 10^06 1/Ms,–,B22
2.54 × 10^06 1/Ms,–,B23

# Same assay, conditions: equilibrium dissociation constant, Human DR5
row,Kd,Molecule
1,1.02 pM,B1
2,1.01 pM,B2
3,78.8 pM,B3
4,3.89 pM,B4
5,70.6 pM,B5
6,77.4 pM,B6
7,1.62 pM,B7
8,75.1 pM,B8
9,1.92 pM,B9
10,94.2 pM,B10
11,1.09 pM,B12
12,26.1 pM,B14
13,12.7 pM,B15
14,7 pM,B17
15,11.2 pM,B18
16,23.5 pM,B19
17,1.9 pM,B21
18,27.7 pM,B22
19,23.5 pM,B23
